Data as given in the supplement of paper PMC7125110.
± gives the standard error. This sample holds only a part of the variants without activity.

B1: glmS ribozyme (parent)
chain: AUAAAAGCGCCAGAACUACAGAAAUGUAGUUGACGAGGAGGAGGUUUAUCGAAUUUUCGGCGGAUGCCUCCAAA

Variants of: B1
Assay: self-cleavage kobs at 10000 uM GlcN6P; higher = faster cleavage; RNA array
Conditions: with glucosamine-6-phosphate
Summary of the method: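 kcat and KM were obtained from weighted Michaelis–Menten fits across concentrations of kobs values. Those came from one- or two-exponential decay fits to per-tile medians normalised to baseline and to non-cleaving reference variants. The variants were barcoded ribozymes transcribed in situ by E. coli RNA polymerase on sequenced MiSeq chips and tracked through a hybridised Cy3 probe at 37 °C, with 40 μM to 10 mM glucosamine-6-phosphate in HEPES/KCl/Mg(OAc)2 buffer flowed in.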

| Variant | self-cleavage kobs at 10000 uM GlcN6P [s⁻¹] |
| --- | --- |
| U31C A42C A64G | < 1e-05 |
| C11G G66C | < 1e-05 |
| U56C U57A | 8.46e-05 ± 1.3e-05 |
| A15U A39U U55A | 0.00299 ± 0.00069 |
| G9A A36U U65C | < 1e-05 |
| C11A A15C U54G | 5.7e-05 ± 1.8e-05 |
| A53G U56G C71G | 0.00022 ± 5.2e-05 |
| U54C C58G G63C | < 1e-05 |
| A14C G32U U65G | 0.000125 ± 3e-05 |
| G40A G59U C61A | < 1e-05 |
| G7A G9C G40U | < 1e-05 |
| C50U G60U C70A | < 1e-05 |
| A15G U30G U46C | 0.000407 ± 0.0001 |
| G21A A33U | 0.00012 ± 2.2e-05 |
| G13A C34G A52C | < 1e-05 |
| A39G G44A U57A C61U C70U | < 1e-05 |
| G29U U54A C68U | 0.000427 ± 0.00018 |
| C16U A42U A52C | < 1e-05 |
| A12U A14U G29A | 0.00021 ± 4.5e-05 |
| C8U C34G C58G G60U C67U | < 1e-05 |
| U54A G60A | 3.42e-05 ± 1.5e-05 |
| A33U U57C C67G U69A | < 1e-05 |
| G40A G44U A64C | < 1e-05 |
| C16G A33U G35U G63U A64C | < 1e-05 |

| Variant | self-cleavage kobs at 10000 uM GlcN6P [s⁻¹] |
| --- | --- |
| A6C U31G G41C U54A U55C C68U | < 1e-05 |
| G9A A15C C67A | < 1e-05 |
| U49A C50A | < 1e-05 |
| C16A U31G C68U | 4.49e-05 ± 1.5e-05 |
| G44U A64C C70U | < 1e-05 |
| G35A G60C C61G A64C G66A | < 1e-05 |
| G41A C61G A64U | < 1e-05 |
| A14U U30A G40C | 5.69e-05 ± 1.4e-05 |
| U30A G32U C67A | 0.000213 ± 6e-05 |
| G32U U49G A64G | 0.000122 ± 2.8e-05 |
| C11G U30C A42C U55G C61A G62A C71G | < 1e-05 |
| C10G A48G G51C | < 1e-05 |
| A33C G43U U49C C68U | < 1e-05 |
| G32U U56A C58A C68A | 0.000114 ± 2.2e-05 |
| A12U A14C U31C | 0.00145 ± 0.00047 |
| C50G A53G C68G C70A | 7.46e-05 ± 1.9e-05 |
| G40C A53U C61A | < 1e-05 |
| G29C A36G G60C U69G | < 1e-05 |
| G37A U56C G66U | 2.45e-05 ± 1.1e-05 |
| G37U G60U U69C | < 1e-05 |
| G29A G32U C50A C68G | 0.000193 ± 6e-05 |
| A39G G44U C71U | 3.94e-05 ± 1.7e-05 |
| G32U U54C C70A | 4.27e-05 ± 1.5e-05 |
| A42U G62A U69G | < 1e-05 |

| Variant | self-cleavage kobs at 10000 uM GlcN6P [s⁻¹] |
| --- | --- |
| G9U U30A C71U | < 1e-05 |
| G40A A53G C70A | 0.000157 ± 3.7e-05 |
| C11U C34G G38A | < 1e-05 |
| C8U U47G G63A C70A | 0.000324 ± 0.00012 |
| G9C A36C G43A U47A | < 1e-05 |
| C10A A15C C16U G40A G44A C61G | < 1e-05 |
| A14C G32A U69G | 7e-05 ± 1.6e-05 |
| A39C U46A U55A U57A | < 1e-05 |
| A39C G51A C58U G62U | < 1e-05 |
| C10U C34U A48C | < 1e-05 |
| A15C U30C G62U | < 1e-05 |
| A39C C50A A53C G66U | < 1e-05 |
| A15U G32C C71U | 8.58e-05 ± 2e-05 |
| G35U G40C G59C G62A U69C | < 1e-05 |
| C16U G35C C58A | < 1e-05 |
| U30A C34G G43U C61U G63U | < 1e-05 |
| A14U G37A G43C G59C | < 1e-05 |
| C11U A14C A15U G38U C68G | 7.05e-05 ± 3e-05 |
| A15U G37A U47A C67G C70G | < 1e-05 |
| U56A C67U C71G | 5.21e-05 ± 8.7e-06 |
| C10G G29U U55C | < 1e-05 |
| C10U A15G G35A | < 1e-05 |
| G32A U55A C67G | 8.33e-05 ± 2.7e-05 |
| A6C U56A C68G | < 1e-05 |

| Variant | self-cleavage kobs at 10000 uM GlcN6P [s⁻¹] |
| --- | --- |
| G41C U56G G62U | < 1e-05 |
| G43A G59C C67G | < 1e-05 |
| A12U A15C C16U | 0.0012 ± 0.00023 |
| G7U G29U G37U | < 1e-05 |
| A42C G51A G63U | < 1e-05 |
| A12U C16A C58A | 7.98e-05 ± 1.6e-05 |
| A12U U54C G59U A64C | < 1e-05 |
| A42C U45C C50U | < 1e-05 |
| U31G U47C C61U C71U | < 1e-05 |
| G9A A12G A36C G38C | < 1e-05 |
| G43U U46G C50U C58A | < 1e-05 |
| U30A U47G A53G | 0.000616 ± 0.0001 |
| G13U G43U A64U | < 1e-05 |
| U30C A53G G66A | 8.63e-05 ± 2.1e-05 |
| A6U C16U U45A | 0.000375 ± 6.6e-05 |
| U31A C61G C71U | < 1e-05 |
| G41C G59U G60C | < 1e-05 |
| C10G C34G A36G G44A U45G U57C C61A C70A | < 1e-05 |
| G29C U46G C67U | 0.000125 ± 3.3e-05 |
| G32A A39U C68U | 0.000655 ± 0.00014 |
| A12C U57G | 5.46e-05 ± 1.2e-05 |
| G9A A53G G66U | < 1e-05 |
| C16G A33G C58G | < 1e-05 |
| A15U G60U G62C | < 1e-05 |

| Variant | self-cleavage kobs at 10000 uM GlcN6P [s⁻¹] |
| --- | --- |
| U30G G51U U55C C61A | < 1e-05 |
| A6C C16U G38U U49G G51U G59C U65A | < 1e-05 |
| A15C U30G C68G | 0.000435 ± 0.00015 |
| C16A U49G | 2.8e-05 ± 1.1e-05 |
| C34U U49C C50G C61U C68G C71G | 0.000303 ± 7.9e-05 |
| G35A A52C U55C | < 1e-05 |
| C16G U54C C67U | 0.000749 ± 0.00015 |
| G51C A52U U57C G59U | < 1e-05 |
| U31G A33U A53G | 2.81e-05 ± 1.3e-05 |
| G9U A14U | < 1e-05 |
| A12C G29C A39U | 0.000876 ± 0.0002 |
| G9C G41U G43U C67G | < 1e-05 |
| U30G A33C A48C C71U | < 1e-05 |
| U31C A48C | 3.72e-05 ± 7.7e-06 |
| A6C C8U G9C C67U | < 1e-05 |
| A42U U46C C50A A53U | < 1e-05 |
| G9A A33U G51A A52U U55A | < 1e-05 |
| C34U A36C | < 1e-05 |
| G7U G13U C16U C50G U56G G66U | 3.32e-05 ± 1.5e-05 |
| U30A A39C | 0.00136 ± 0.00028 |
| U31A G41U A42U G62A | < 1e-05 |
| C8U G29U G32C G35C A36U C50A A52U | < 1e-05 |
| A15G U30G G40U | 0.000863 ± 0.00017 |
| C16G A39U U47A C50G | < 1e-05 |

| Variant | self-cleavage kobs at 10000 uM GlcN6P [s⁻¹] |
| --- | --- |
| G7C C11A G13A | < 1e-05 |
| G44A A64G | 3.74e-05 ± 1.4e-05 |
| A1U U2G A3G A5U G44A | 4.04e-05 ± 1.7e-05 |
| G44U A48G C50U C71U | < 1e-05 |
| G32U U46A U56G | 3.85e-05 ± 1.2e-05 |
| A12G C61A | < 1e-05 |
| A6U U55A C70U | 0.000254 ± 6.5e-05 |
| G37A G51U C68G | < 1e-05 |
| G9U A15U C34A C58G | < 1e-05 |
| C34U U45A C50A | < 1e-05 |
| G13A A22U U45G | 7.33e-05 ± 1e-05 |
| G13A G38A A64G | < 1e-05 |
| C11G U25C A53U A64U | < 1e-05 |
| C16G U55G C58U | 5.56e-05 ± 2.5e-05 |
| C61U G62U C67U | < 1e-05 |
| A15C G29C G59A U65A | < 1e-05 |
| U54C G59A | 8.08e-05 ± 1.3e-05 |
| G35C U45G U47A U65C | < 1e-05 |
| A14G G32C G40U A42G | 6.25e-05 ± 2.1e-05 |
| C8G C50G C70G | 0.000104 ± 2.2e-05 |
| U54A A64C | 0.000157 ± 2.8e-05 |
| A6C C34A G37U | < 1e-05 |
| G13A C50G C70G | 9.61e-05 ± 2e-05 |
| U30C G35C G41U C71A | < 1e-05 |

| Variant | self-cleavage kobs at 10000 uM GlcN6P [s⁻¹] |
| --- | --- |
| C16G G43U C68U | 0.0002 ± 4.7e-05 |
| U56A C58A C67G | 7.18e-05 ± 2.4e-05 |
| A18C A33C | 0.000165 ± 4.4e-05 |
| G29A G40C G44A | < 1e-05 |
| G29U U46G C61G G66A | < 1e-05 |
| A15U G32U G66A | 0.000174 ± 4e-05 |
| G37C G51A U69A | < 1e-05 |
| G40C A52C | < 1e-05 |
| A6G A14U A36G C50A | < 1e-05 |
| U45A U46C C67G | 0.000673 ± 0.00013 |
| G37C G41A G51U G62U C67A | < 1e-05 |
| A12U A48C U49C C50A C68U | < 1e-05 |
| A6G U30G C68G | < 1e-05 |
| G43C U55A G60U | < 1e-05 |
| A15C U46C G62U | < 1e-05 |
| C8A A15U C70U | < 1e-05 |
| A12U U30C G32A A52U U65G C70G | < 1e-05 |
| G13C G35C U49C | < 1e-05 |
| G37U A52G A64C C70A | < 1e-05 |
| C50U C58A C67U | < 1e-05 |
| U31C C58U G63C | < 1e-05 |
| C16U U31A U45A | 0.00606 ± 0.0026 |
| G38A A42U C50G C67G | 0.000231 ± 6.8e-05 |
